Key:
[1] = molecular target: EGFP-RhoA (UniProt P61586); experiment: fluorescence polarisation; 100 nM EGFP-RhoA.GDP titrated with Dbs; 20 mM Tris pH 7.4, 150 mM KCl, 1 mM TCEP, 2 mM MgCl2 (nucleotide-loaded RhoA); 25 °C
[2] = molecular target: EGFP-RhoA (UniProt P61586); experiment: fluorescence polarisation; 100 nM EGFP-RhoA.GDP titrated with Dbs; 20 mM Tris pH 7.4, 150 mM KCl, 1 mM TCEP, 1 mM EDTA (nucleotide-free RhoA); 25 °C

EGFP-RhoA, sequence (P61586 whole entry): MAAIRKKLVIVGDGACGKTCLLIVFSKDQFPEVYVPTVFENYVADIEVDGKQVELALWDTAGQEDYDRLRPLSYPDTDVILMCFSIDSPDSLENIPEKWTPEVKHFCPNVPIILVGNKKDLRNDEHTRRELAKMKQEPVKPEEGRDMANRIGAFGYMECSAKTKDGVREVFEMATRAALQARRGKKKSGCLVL

B1: guanine exchange factor Dbs 622-965 (domain or fragment)
chain: TGEEEESLAILRRHVMNELLDTERAYVEELLCVLEGYAAEMDNPLMAHLISTGLQNKKNILFGNMEEIYHFHNRNIPAGLESCIDCPELVGRCFLERMEEFQIYEKYCQNKPRSESLWRQCSDCPFFQECQKKLDHKLSLDSYLLKPVQRITKYQLLLKEMLKYSKHCEGAEDLQEALSSILGILKAVNDSMHLIAITGYDGNLGDLGKLLMQGSFSVWTDHKKGHTKVKELARFKPMQRHLFLHEKAVLFCKKREENGEGYEKAPSYSYKQSLNMTAVGITENVKGDTKKFEIWYNAREEVYIIQAPTPEIKAAWVNEIRKVLTSQLQACREASQHRALEQSH
Kd [1]: 21.2 µM | Kd [2]: 0.354 µM
